Assay results reported in publication PMC7205207, “Modeling and mitigation of high-concentration antibody viscosity through structure-based computer-aided protein design” (PLoS ONE, 2020).

Biological target: T1, human PDGF-BB (platelet derived growth factor B homodimer) (human, UniProt P01127)
T1 construct: Platelet derived growth factor B, human, homodimer, bought from PeproTech; the printed catalogue number may stand for 100-14B; source: bought: PeproTech, Catalog 100-148
Experiment: SPR; Biacore T200, off-rate screen; antibody captured (~70 to 100 RU) by anti-human IgG amine-coupled to a CM5 chip; human PDGF-BB injected at a single 2.5 nM for 170 s, dissociation 300 s; HBS-EP+ N (10 mM HEPES, 500 mM NaCl, 3 mM EDTA, 0.05% Tween20, pH 7.4); 25 C
Settings: both partners purified

T1 sequence (P01127 82-190): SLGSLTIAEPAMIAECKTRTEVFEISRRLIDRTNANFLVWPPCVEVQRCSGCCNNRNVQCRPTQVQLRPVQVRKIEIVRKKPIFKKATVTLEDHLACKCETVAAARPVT

Row | Binder | koff [s⁻¹]
1 | R1-007 (antibody, V domains shown, VL of AB-001 (AB-001_LC); only the variable regions are written; source: HEK293, transient, purified from conditioned medium (protein A, TMAE, HIC)) VH: EVQLLQSGGGLVKPGGSLRLSCAASGFTFSSYAMSWVRQAPGKGLEWVSYISDDGSLKYYADSVKGRFTISRDNSKNTLYLQMNSLRAEDTAVYYCARHPYWYGGQLDLWGQGTLVTVSS VL: SYELTQPPSVSVSPGQTASITCSGDSLGSYFVHWYQQKPGQSPVLVIYDDSNRPSGIPERFSGSNSGNTATLTISGTQAMDEADYYCSAFTHNSDVFGGGTKLTVL | 0.000282
2 | R1-004 (antibody, V domains shown, VL of AB-001 (AB-001_LC); only the variable regions are written; source: HEK293, transient, purified from conditioned medium (protein A, TMAE, HIC)) VH: EVQLLESGGGLVQPGGSLRLSCRASGFTFSSYAMSWVRQAPGKGLEWVSYISDDGSLKYYADSVKGRFTISRDNSKNTLYLQMNSLRAEDTAVYYCARHPYWYGGQLDLWGQGTLVTVSS VL: SYELTQPPSVSVSPGQTASITCSGDSLGSYFVHWYQQKPGQSPVLVIYDDSNRPSGIPERFSGSNSGNTATLTISGTQAMDEADYYCSAFTHNSDVFGGGTKLTVL | 0.000258
3 | R2-005 (antibody, V domains shown, as the VH of m20 (R2-001_HC); as the VL of m20 (R2-001_LC) with Y49R (Kabat); only the variable regions are written; source: HEK293, transient, purified from conditioned medium (protein A, TMAE, HIC)) VH: EVQLLQSGGGLVKPGGSLRLSCAASGFTFSSYAMSWVRQAPGKGLEWVSYISDDGSLKYYADSVKGRFTISRDNSKNTLYLQMNSLRAEDTAVYYCARHPYWYGGQLDLWGQGTLVTVSS VL: SYVLTQPPSVSVAPGKTARITCSGDSLGSYFVHWYQQKPGQSPVLVIRDDSKRPSGIPERFSGSNSGNTATLTISGTQAMDEADYYCSAFTHNSDVFGGGTKLTVL | 0.000348
4 | R1-012 (antibody, V domains shown, Kabat position; only the variable regions are written; source: HEK293, transient, purified from conditioned medium (protein A, TMAE, HIC)) VH: EVQLLQSGGGLVKPGGSLRLSCAASGFTFSSYAMSWVRQAPGKGLEWVSYISDDGSLKYYADSVKGRFTISRDNSKNTLYLQMNSLRAEDTAVYYCARHPYWYGGQLDLWGQGTLVTVSS VL: SYVLTQPPSVSVSPGQTASITCSGDSLGSYFVHWYQQKPGQSPVLVIYDDSNRPSGIPERFSGSNSGNTATLTISGTQAMDEADYYCSAFTHNSDVFGGGTKLTVL | 0.000304
5 | R1-003 (antibody, V domains shown, VL of AB-001 (AB-001_LC); only the variable regions are written; source: HEK293, transient, purified from conditioned medium (protein A, TMAE, HIC)) VH: EVQLLESGGGLVKPGGSLRLSCAASGFTFSSYAMSWVRQAPGKGLEWVSYISDDGSLKYYADSVKGRFTISRDNSKNTLYLQMNSLRAEDTAVYYCARHPYWYGGQLDLWGQGTLVTVSS VL: SYELTQPPSVSVSPGQTASITCSGDSLGSYFVHWYQQKPGQSPVLVIYDDSNRPSGIPERFSGSNSGNTATLTISGTQAMDEADYYCSAFTHNSDVFGGGTKLTVL | 0.000443
6 | R1-005 (antibody, V domains shown, VL of AB-001 (AB-001_LC); only the variable regions are written; source: HEK293, transient, purified from conditioned medium (protein A, TMAE, HIC)) VH: EVQLLESGGGLVQPGGSLRLSCAASGFTFSSYAMSWVRQAPGKGLEWVSYISNDGSLKYYADSVKGRFTISRDNSKNTLYLQMNSLRAEDTAVYYCARHPYWYGGQLDLWGQGTLVTVSS VL: SYELTQPPSVSVSPGQTASITCSGDSLGSYFVHWYQQKPGQSPVLVIYDDSNRPSGIPERFSGSNSGNTATLTISGTQAMDEADYYCSAFTHNSDVFGGGTKLTVL | 0.000381
7 | R1-013 (antibody, V domains shown, only the variable regions are written; source: HEK293, transient, purified from conditioned medium (protein A, TMAE, HIC)) VH: EVQLLQSGGGLVQPGGSLRLSCAASGFTFSSYAMSWVRQAPGKGLEWVSYISDDGSLKYYADSVKGRFTISRDNSKNTLYLQMNSLRAEDTAVYYCARHPYWYGGQLDLWGQGTLVTVSS VL: SYELTQPPSVSVSPGQRASITCSGDSLGSYFVHWYQQKPGQSPVLVIYDDSNRPSGIPERFSGSNSGNTATLTISGTQAMDEADYYCSAFTHNSDVFGGGTKLTVL | 0.000297
8 | R1-006 (antibody, V domains shown, VL of AB-001 (AB-001_LC); only the variable regions are written; source: HEK293, transient, purified from conditioned medium (protein A, TMAE, HIC)) VH: EVQLLESGGGLVQPGGSLRLSCAASGFTFSSYAMSWVRQAPGKGLEWVSYISDDGSLKYYADSVKGRFTISRDNSKNTLYLQMNSLRAEDTAVYYCARHPYWYGGRLDLWGQGTLVTVSS VL: SYELTQPPSVSVSPGQTASITCSGDSLGSYFVHWYQQKPGQSPVLVIYDDSNRPSGIPERFSGSNSGNTATLTISGTQAMDEADYYCSAFTHNSDVFGGGTKLTVL | 0.000314
9 | R1-015 (antibody, V domains shown, only the variable regions are written; source: HEK293, transient, purified from conditioned medium (protein A, TMAE, HIC)) VH: EVQLLQSGGGLVKPGGSLRLSCAASGFTFSSYAMSWVRQAPGKGLEWVSYISDDGSLKYYADSVKGRFTISRDNSKNTLYLQMNSLRAEDTAVYYCARHPYWYGGQLDLWGQGTLVTVSS VL: SYELTQPPSVSVSPGQTASITCSGDSLGSYFVHWYQQKPGQSPVLVIYDDSNRPSGIPERFSGSNSGNTATLTISGTQAMDEADYYCSAFTHNSNVFGGGTKLTVL | 0.000752
10 | R2-004 (antibody, V domains shown, as the VH of m20 (R2-001_HC); as the VL of m20 (R2-001_LC) with Y49H (Kabat); only the variable regions are written; source: HEK293, transient, purified from conditioned medium (protein A, TMAE, HIC)) VH: EVQLLQSGGGLVKPGGSLRLSCAASGFTFSSYAMSWVRQAPGKGLEWVSYISDDGSLKYYADSVKGRFTISRDNSKNTLYLQMNSLRAEDTAVYYCARHPYWYGGQLDLWGQGTLVTVSS VL: SYVLTQPPSVSVAPGKTARITCSGDSLGSYFVHWYQQKPGQSPVLVIHDDSKRPSGIPERFSGSNSGNTATLTISGTQAMDEADYYCSAFTHNSDVFGGGTKLTVL | 0.000439
11 | R1-014 (antibody, V domains shown, only the variable regions are written; source: HEK293, transient, purified from conditioned medium (protein A, TMAE, HIC)) VH: EVQLLQSGGGLVKPGGSLRLSCAASGFTFSSYAMSWVRQAPGKGLEWVSYISDDGSLKYYADSVKGRFTISRDNSKNTLYLQMNSLRAEDTAVYYCARHPYWYGGQLDLWGQGTLVTVSS VL: SYELTQPPSVSVSPGQRASITCSGDSLGSYFVHWYQQKPGQSPVLVIYDDSNRPSGIPERFSGSNSGNTATLTISGTQAMDEADYYCSAFTHNSDVFGGGTKLTVL | 0.000405
